Source: article PMC9246348

Legend:
ADP-Glo kinase assay [1] = substrate: Nc1ccn([C@@H]2O[C@H](CO)[C@@H](O)[C@H]2O)c(=O)n1; experiment: ADP-Glo kinase assay; format: biochemical, Homo sapiens; conditions: 100 µM ATP, 50 mM Tris pH 7.5, 5 mM MgCl2, 2 mM DTT, room temperature
ADP-Glo kinase assay [2] = substrate: O=c1ccn([C@@H]2O[C@H](CO)[C@@H](O)[C@H]2O)c(=O)[nH]1; experiment: ADP-Glo kinase assay; format: biochemical, Homo sapiens; conditions: 100 µM ATP, 50 mM Tris pH 7.5, 5 mM MgCl2, 2 mM DTT, room temperature

B1: UCK2 (Homo sapiens) (protein)
chain: MAGDSEQTLQNHQQPNGGEPFLIGVSGGTASGKSSVCAKIVQLLGQNEVDYRQKQVVILSQDSFYRVLTSEQKAKALKGQFNFDHPDAFDNELILKTLKEITEGKTVQIPVYDFVSHSRKEETVTVYPADVVLFEGILAFYSQEVRDLFQMKLFVDTDADTRLSRRVLRDISERGRDLEQILSQYITFVKPAFEEFCLPTKKYADVIIPRGADNLVAINLIVQHIQDILNGGPSKRQTNGCLNGYTPSRKRQASESSSRPH
Km (ADP-Glo kinase assay [1]): 25.07 µM | Vmax (ADP-Glo kinase assay [1]): 1.09 µmol/min/mg | kcat/Km (ADP-Glo kinase assay [1]): 35000 M⁻¹ s⁻¹ | Km (ADP-Glo kinase assay [2]): 207.3 µM | Vmax (ADP-Glo kinase assay [2]): 3.98 µmol/min/mg | kcat/Km (ADP-Glo kinase assay [2]): 15000 M⁻¹ s⁻¹
